Substrate: C[C@@](O)(CCO)CC(=O)O
Assay: purified protein
Details: pH 8.5; 55.0 °C

B1: Ta1305 (mevalonate-3-kinase) (Thermoplasma acidophilum DSM 1728) (protein)
chain: MTYRSIGSTAYPTIGVVLLGGIANPVTRTPLHTSAGIAYSDSCGSIRSETRIYADEATHIYFNGTESTDDNRSVRRVLDRYSSVFEEAFGTKTVSYSSQNFGILSGSSDAGAASIGAAILGLKPDLDPHDVENDLRAVSESAGRSLFGGLTITWSDGFHAYTEKILDPEAFSGYSIVAFAFDYQRNPSDVIHQNIVRSDLYPARKKHADEHAHMIKEYAKTNDIKGIFDLAQEDTEEYHSILRGVGVNVIRENMQKLISYLKLIRKDYWNAYIVTGGSNVYVAVESENADRLFSIENTFGSKKKMLRIVGGAWHRRPE
B1 was tested, and the Km was 97 ± 6 µM.
